6 molecules from US12692524B2, “Sialyltransferases and their use in producing sialylated oligosaccharides” (Chr. Hansen A/S, priority 2017, dated 2026) can be followed below.

Experiment [1] in a line: In vivo screening in E. coli #1363/#1730 with lactose as acceptor, sialyllactose identified by TLC. To be noted: 1.5 mM lactose, 72 to 96 hours, qualitative via TLC. The format is cell-based, Escherichia coli BL21(DE3). The protocol: Escherichia coli BL21(DE3) #1363 and #1730 harbouring plasmids encoding for 100 sialyltransferases were grown at 30° C. in 100 ml shake flasks filled with 20 ml of mineral salts medium (Samain et al., J. Biotech. 1999, 72:33-47) supplemented with 2% (wt/vol) glucose, ampicillin 100 μg ml^−1, kanamycin 15 μg ml^−1 and zeocin 40 μg ml^−1. When the cultures reached an OD600 of 0.1 to 0.3, gene expression was induced by addition of 0.3 mM IPTG. After an incubation for one hour, 1.5 mM lactose was added to #1363 cultures whereas 1.5 mM lactose as well as 1.5 mM sialic acid was added to #1730 cultures. The incubation continued for 72 to 96 hours. Then, cells were harvested by centrifugation and mechanically disrupted in a defined volume using glass beads. Subsequently, samples were applied to thin layer chromatography (TLC) on Silica Gel 60 F254 (Merck KGaA, Darmstadt, Germany). A mixture of butanol:acetone:acetic acid:H2O (35/35/7/23 (v/v/v/v)) was used as mobile phase. For detection of the separated substances, the TLC plate was soaked with thymol reagent (0.5 g thymol solved in 95 ml ethanol, 5 ml sulfuric acid added) and heated.
In the entire screening, thirty two genes were identified to encode for α-2,3-sialyltransferases, thus producing 3′-SL. 19 enzymes synthesized 6′-SL and were depicted as α-2,6-sialyltransferases. An α-2,3- as well as an α-2,6-sialyltransferase activity could only be observed for 3 enzymes. […] The screening appeared highly accurate since the described activities of extensively characterized sialyltransferases, e. g. […] Regarding the product formation, the experimental setting allowed a semi-quantitative comparison of the screened enzymes. But to achieve deeper knowledge about their kinetic properties, the 3 potentially best performing α-2,3- and α-2,6-sialyltransferases were applied to in vitro assays.

Experiment [2] can be described thus: In vitro sialylation of LNT by protein extracts, LST-a/-b quantified by LC-MS/MS. Format: biochemical. As to conditions: 5 mM LNT, 10 mM CMP-Neu5Ac, 16 hours, LC-MS/MS; relative quantity; n.d.: not detectable. As to the method:
Escherichia coli BL21(DE3) harbouring plamids encoding for 100 sialyltransferases were grown at 30° C. in 100 ml shake flasks filled with 20 ml of 2YT medium supplemented with ampicillin 100 μg ml^−1. When the cultures reached an OD600 of 0.1 to 0.3, gene expression was induced by addition of 0.3 mM IPTG and the incubation was continued for 12 to 16 hours. Cells were harvested by centrifugation and mechanically disrupted in a defined volume of 50 mM Tris-HCl pH7.5 using glass beads. The protein extract was kept on ice until the assay started. The in vitro assay was carried out in a total volume of 25 μl including 50 mM Tris-HCl pH7.5, 5 mM MgCl2, 10 mM CMP-Neu5Ac and 5 mM LNT. The assay started with the addition of 3 μl protein extract and continued for 16 hours. Product formation was determined by mass spectrometry.
Mass spectrometry analysis was performed by MRM (multiple reaction monitoring) using a LC Triple-Quadrupole MS detection system. Precursor ions are selected and analyzed in quadrupole 1, fragmentation takes place in the collision cell using argon as CID gas, selection of fragment ions is performed in quadrupole 3. Chromatographic separation of lactose, 3′-Sialyllactose and 6′-Sialyllactose after dilution of culture supernatant 1:100 with H2O (LC/MS Grade), was performed on a XBridge Amide HPLC column (3.5 μm, 2.1×50 mm (Waters, USA) with a XBridge Amide guard cartridge (3.5 μm, 2.1×10 mm) (Waters, USA). Column oven temperature of the HPLC system was 50° C. The mobile phase was composed of acetonitrile:H2O with 10 mM ammonium acetate. A 1 μl sample was injected into the instrument; the run was performed for 3.60 min with a flow rate of 400 μl/min. 3′-Sialyllactose and 6′-Sialyllactose were analyzed by MRM in ESI positive ionization mode. The mass spectrometer was operated at unit resolution. Sialyllactose forms an ion of m/z 656.2 [M+Na]. The precursor ion of Sialyllactose was further fragmented in the collision cell into the fragment ions m/z 612.15, m/z 365.15 and m/z 314.15. Collision energy, Q1 and Q3 Pre Bias were optimized for each analyte individually. Chromatographic separation of lactose, LNT-II, LNT and LST-a or -b after dilution of particle-free biocatalysis-reaction or crude extract, respectively, 1:50 with H2O (LC/MS Grade), was performed on a XBridge Amide HPLC column (3.5 μm, 2.1×50 mm (Waters, USA) with a XBridge Amide guard cartridge (3.5 μm, 2.1×10 mm) (Waters, USA). Column oven was run at 35° C. The mobile phase was composed of acetonitrile:H2O with 0.1% ammonium hydroxide. A 1 μl sample was injected into the instrument; the run was performed for 3.50 min with a flow rate of 300 μl/min. Lactose, LNT-II, LNT as well as LST-a and -b were analyzed by MRM in ESI negative ionization mode. The mass spectrometer was operated at unit resolution. Lactose forms an ion of m/z 341.00 [M−H]. The precursor ion of Lactose was further fragmented in the collision cell into the fragment ions m/z 179.15, m/z 161.15 and m/z 101.05. LNT-II forms an ion of m/z 544.20 [M−H]. The precursor ion of LNT-II was further fragmented into the fragment ions m/z 382.10, m/z 161.00 and m/z 112.90. LNT forms an ion of m/z 706.20 [M−H]. The precursor ion of LNT was further fragmented into the fragment ions m/z 382.10, m/z 202.10 and m/z 142.00. LST-a and -b forms an ion of m/z 997.20 [M−H]. The precursor ion of LST-a and-b was further fragmented into the fragment ions m/z 290.15, m/z 202.15 and m/z 142.15. Collision energy, Q1 and Q3 Pre Bias were optimized for each analyte individually. Quantification methods were established using commercially available standards (Carbosynth, Compton, UK).
Twenty eight genes were identified to produce LST-a whereas only 6 enzymes synthesized LST-b. […] Irrespectively of the protein overexpression level, sialyltransferases that produced best were selected for determination of Km and Vmax.

B1: SiaT30: sialyltransferase of Haemophilus parahaemolyticus HK385, acc. EIJ71207, SEQ ID NO: 19 (protein, listed as Haemophilus parahaemolyticus)
chain: MTEQYIKNVEVYLDYATIPTLNYFYHFTENKDDIATIRLFGLGRFNISKSIIESYPEGIIRYCPIIFEDQTAFQQLFITLLTEDSFCQYRFNFHINLFHSWKMLIPLLHIIWQFKHKVLDIKLNFYDDGSEGLVTLSKIEQNYSSEILQKIIDIDSQSFYADKLSFLDEDIARYLWNSLFESHYYLLNDFLLKNEKLSLLKNSIKYCHIMDLERYLQFTQEEKDFFNELLGINIQSLEDKIKIFQQKKTFIFTGTTIFSLPKEEEETLYRLHLNAILNYIHPNGKYFIGDGFTLVIKGHPHQKEMNSRLEKSFEKAVMLPDNIPFEILYLIGCKPDKIGGFVSTSYFSCDKKNIADLLFISARQEEVRKNDYLFNIQYQLRDMMIKTGFIQEEKTHFYSDIPIFIS
Consider B1, for which, in experiment [1], the “Production of sialyllactose in-vivo” value is on record as 3′-SL. In experiment [2], the “Relative efficacy of sialyltransferases regarding in-vitro production of sialyllacto-N-tetraoses: LST-a” value (“Relative efficacy” below) worked out at 17.

B2: SiaT21: sialyltransferase of Vibrio harveyi, acc. WP_017817635, SEQ ID NO: 21 (protein, listed as Vibrio harveyi)
chain: MDSSPENTSSTLEIYIDSATLPSLQHMVKIIDEQSGNKKLINWKRYPIDDELLLDKINALSFSDTTDLTRYMESILLIGDIKRVVINGNSLSNYNIVGVMRSINALGLDLDVEINFYDDGSAEYVRLYNFSQLPEAERELLVSMSKNNILAAVNGIGSYDSGSPENIYGFAQIYPATYHMLRADIFDTDLEIGLIRDILGDNVKQMKWGQFLGFNEEQKELFYQLTSFNPDKIQAQYKESPNKNFVFVGTNSRSATAEQQINIIKEAKKLDSEIIPNSIDGYDLFFKGHPSATYNQQIVDAHDMTEIYNRTPFEVLAMTSSLPDAVGGMGSSLFFSLPKTVETKFIFYKSGTDIESNALIQVMLKLGIITDEKVRFTTDIK
Turning to B2, the “Production of sialyllactose in-vivo” value in experiment [1] was 3′-SL. Further, the “Relative efficacy” value in experiment [2] is 12.

B3: SiaT22: sialyltransferase of Streptococcus entericus, acc. WP_018369230, SEQ ID NO: 13 (protein, listed as Streptococcus entericus)
chain: MKKVYFCHTVYHLLITLCKISVEEQVEIIVFDTVSNHELIVQKIRDVFVNTTVLFAEQNTDFSILEIDRATDIYVFNDWTPIGAYLRKNKLFYHLIEDGYNYHEYNVYANALTMKRRLLNFVLRREEPSGFSRYVRSIEVNRVKYLPNDCRKSKWVEKPRSALFENLVPEHKQKIITIFGLENYQDSLRGVLVLTQPLVQDYWDRDITTEEEQLEFYRQIVESYGEGEQVFFKIHPRDKVDYSSLTNVIFLKKNVPMEVYELIADCHFTKGITHSSTALDFLSCVDKKITLKQMKANS
Consider B3, for which, in experiment [1], the “Production of sialyllactose in-vivo” value is listed as 3′-SL. The “Relative efficacy” value in experiment [2] is reported as 564.

B4: SiaT31: sialyltransferase of Alistipes sp. CAG:268, acc. CDC95697, SEQ ID NO: 22 (protein, listed as Alistipes sp.)
chain: MASCSDDDKEQTGFQIDDGSGFLSLDAAARSGSIAITANNSWSVTQDKDSEWLTLSTTSGAAGRTEIGIMLEANPGEARNAGLTFNSGGRTYPFVITQSAHVTADFDDADHCFYITFGTLPTLYAGLHVLSHDKPSYVFFQRSQTFRPEEFPAHAEVTIAADPSANATDEDMERMRTAMKQQILKINVEDPTAVFGLYVDDLRCGIGYDWFVAQGIDSTRVKVSMLSDGTGTYNNFYNYFGDPATAEQNWENYAAQVEALDWQHGGRFPETRMPDGFDFYEWPYYLATRPNYRLVLQDDDLLEATSPFMTERLQQMRTESKQPYELLASLPAEARQRFFRMAGFDYDAFAALFDASPKKNLVIIGTSHTSEESEAQQAAYVERIIGDYGTAYDIFFKPHPADSSSSNYEERFEGLTLLPGQMPFEIFVWSLLDKVDLIGGYSSTVFLTVPVEKTGFIFAANAESLPRPLNVLFRNAEHVRWIQ
Consider B4, for which the “Production of sialyllactose in-vivo” value in experiment [1] was 3′-SL. Besides, the “Relative efficacy” value in experiment [2] stood at 4.

B5: SiaT17: sialyltransferase of Photobacterium phosphoreum JT-ISH-467, acc. BAF63530, SEQ ID NO: 8 (protein, listed as Photobacterium phosphoreum)
chain: MGCNSDSKHNNSDGNITKNKTIEVYVDRATLPTIQQMTQIINENSNNKKLISWSRYPINDETLLESINGSFFKNRPELIKSLDSMILTNEIKKVIINGNTLWAVDVVNIIKSIEALGKKTEIELNFYDDGSAEYVRLYDFSRLPESEQEYKISLSKDNIQSSINGTQPFDNSIENIYGFSQLYPTTYHMLRADIFETNLPLTSLKRVISNNIKQMKWDYFTTFNSQQKNKFYNFTGFNPEKIKEQYKASPHENFIFIGTNSGTATAEQQIDILTEAKKPDSPIITNSIQGLDLFFKGHPSATYNQQIIDAHNMIEIYNKIPFEALIMTDALPDAVGGMGSSVFFSLPNTVENKFIFYKSDTDIENNALIQVMIELNIVNRNDVKLISDLQ
On to B5, for which the “Production of sialyllactose in-vivo” value in experiment [1] is recorded as 3′-SL. The “Relative efficacy” value in experiment [2] is reported as 1.24 × 10^3.

B6: SiaT24: sialyltransferase of Avibacterium paragaffinarum, acc. WP_021724759, SEQ ID NO: 9 (protein, listed as Avibacterium paragallinarum)
chain: MRKIITFFSLFFSISAWCQKMEIYLDYASLPSLNMILNLVENKNNEKVERIIGFERFDFNKEILNSFSKERIEFSKVSILDIKEFSDKLYLNIEKSDTPVDLIIHTNLDHSVRSLLSIFKTLSPLFHKINIEKLYLYDDGSGNYVDLYQHRQENISAILIEAQKKLKDALENRETDTDKLHSLTRYTWHKIFPTEYILLRPDYLDIDEKMQPLKHFLSDTIVSMDLSRFSHFSKNQKELFLKITHFDQNIFNELNIGTKNKEYKTFIFTGTTTWEKDKKKRLNNAKLQTEILESFIKPNGKFYLGNDIKIFFKGHPKGDDINDYIIRKTGAEKIPANIPFEVLMMTNSLPDYVGGIMSTVYFSLPPKNIDKVVFLGSEKIKNENDAKSQTLSKLMLMLNVITPEQIFFEEMPNPINF
As for B6, the “Production of sialyllactose in-vivo” value in experiment [1] is 3′-SL. Further, the “Relative efficacy” value in experiment [2] is 835.
